doi:10.1101/406538 (bioRxiv, 2018)

Target: T1, ATI2-N, N-terminal region of ATG8 Interacting Protein 2 (M1-T193) (Arabidopsis thaliana, UniProt Q8VY98 1-193)
T1 sequence (looked up): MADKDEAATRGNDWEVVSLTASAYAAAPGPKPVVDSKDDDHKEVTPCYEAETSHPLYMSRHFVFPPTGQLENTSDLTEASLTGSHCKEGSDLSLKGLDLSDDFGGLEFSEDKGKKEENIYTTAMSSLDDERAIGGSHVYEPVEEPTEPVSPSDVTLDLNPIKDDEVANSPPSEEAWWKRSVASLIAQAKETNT
Assay: NMR titration

binding result: binds
B1: ATG8f, processed form (1-117), recombinant (natural protein, Arabidopsis thaliana, UniProt Q8VYK7 1-117, looked up)
chain: MAKSSFKQEHDLEKRRAEAARIREKYPDRIPVIVEKAEKSDIPTIDKKKYLVPADLTVGQFVYVIRKRIKLSAEKAIFIFVDNVLPPAGALMSSVYEEKKDDDGFLYVTYSGENTFG
